From US20110086806A1 (published 2011)

T1: recombinant human IL-23R/Fc chimera (R&D Systems) (human, UniProt Q5VWK5 24-355)
T1 construct: Bought; also called rhIL23RFc
T1 sequence (looked up): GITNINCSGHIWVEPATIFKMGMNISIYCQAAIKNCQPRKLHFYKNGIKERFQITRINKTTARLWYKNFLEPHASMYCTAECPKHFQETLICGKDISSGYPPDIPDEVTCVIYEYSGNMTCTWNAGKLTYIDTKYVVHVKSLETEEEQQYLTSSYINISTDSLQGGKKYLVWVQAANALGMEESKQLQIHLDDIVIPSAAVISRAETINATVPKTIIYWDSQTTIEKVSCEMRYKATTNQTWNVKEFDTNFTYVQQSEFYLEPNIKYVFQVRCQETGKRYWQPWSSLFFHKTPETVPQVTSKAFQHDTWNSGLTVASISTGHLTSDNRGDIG


Assays:
[1] = molecular target: T1, recombinant human IL-23R/Fc chimera …; experiment: competition ELISA vs IL-23
[2] = molecular target: T1, recombinant human IL-23R/Fc chimera …; experiment: SPR
In short: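 Recombinant human IL-23R/Fc captured on anti-human IgG Fc CM5 surface (<200 RU); ATRIMER complexes at 1-500 nM injected at 30 μl/min, 3 min association and 5 min dissociation. Kinetic constants fitted from double-referenced sensorgrams.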

[3] = molecular target: T1, recombinant human IL-23R/Fc chimera …; experiment: competition ELISA vs IL-23; remark: listed apart in the source
Description: Assays were performed generally as follows. Individual wells in Immulon HB2 plates were incubated overnight at 4° C. with 100 μL PBS containing 100 ng of an anti-human IgG Fc (R&D MAB 110 clone 97924). Plates were washed five times with PBS/0.05% Tween 20, and wells were incubated for 1.5 h at RT with 100 μL each of PBS containing 50 ng of recombinant human IL-23R/Fc. […] Competitor was included at a final concentration of 1 μg/mL. After incubation, plates were washed as described and wells were incubated for 40 min at RT with 100 μL each of PBS containing a 1:5000 dilution of streptavidin-HRP conjugate (Pierce catalog no. 21130). After washing, wells were incubated with 100 μL each of TMB (BioFX Lab catalog no. TMBH-1000-0) for up to 30 min at RT. Reactions were stopped with an equal volume of 0.2 M sulfuric acid.
A number of ATRIMER™ polypeptide complexes were tested in competition ELISA more extensively to determine IC50 values.

Binder	Ratio IC50 to 056-53.H4E IC50 [1]	Ka [2]	Kd [2]	koff [2]	kon [2]	IC50 [3]
101-80-5H3 ATRIMER complex (designed binder) EPPTQKPKKIVNAKKDVVNTKMFEELKSRLDTLAQEVALLKEQQALQTVCLKGTKVHMKCFLAFTQTKTFHEASEDCISRGGTLSTPQTGSENDALYEYLRQSVGNEAEIWLGLNGSALTNTWVDMTGARIAYKNWEPPAPYHPMAAGVFGENCAVLSGAANGKWFDKRCRDQLPYICQFGIV	11.3	1.55e+08 M⁻¹	6.46 nM	0.000327 s⁻¹	50500 M⁻¹ s⁻¹	
056-41.B5C ATRIMER complex (designed binder, non-covalent homotrimer of the one chain given, not shown: Also the single Ser the vector leaves after the ompA signal) EPPTQKPKKIVNAKKDVVNTKMFEELKSRLDTLAQEVALLKEQQALQTVCLKGTKVHMKCFLAFTQTKTFHEASEDCISRGGTLSTPQTGSENDALYEYLRQSVGNEAEIWLGLNGSALTNTWVDMTGARIAYKNWETEITAQPDGGFGYFGENCAVLSGAANGKWFDKRCRDQLPYICQFGIV		9.78e+08 M⁻¹	1.02 nM	0.000314 s⁻¹	307000 M⁻¹ s⁻¹	1.65 nM
056-40.A3C ATRIMER complex (designed binder, Homotrimer of this chain (ATRIMER complex)., not shown: A possible extra N-terminal Ser from the ompA junction is left out) EPPTQKPKKIVNAKKDVVNTKMFEELKSRLDTLAQEVALLKEQQALQTVCLKGTKVHMKCFLAFTQTKTFHEASEDCISRGGTLSTPQTGSENDALYEYLRQSVGNEAEIWLGLNGSATTATWVDMTGARIAYKNWETEITAQPDGGFGYFGENCAVLSGAANGKWFDKRCRDQLPYICQFGIV		5.7e+08 M⁻¹	1.75 nM	0.000373 s⁻¹	213000 M⁻¹ s⁻¹	1.8 nM
001-69.4G8 ATRIMER complex (designed binder, not shown: C-terminal tag: His/Myc (pANA4) or HA-StrepII (pANA10)) EPPTQKPKKIVNAKKDVVNTKMFEELKSRLDTLAQEVALLKEQQALQTVCLKGTKVHMKCFLAFTQTKTFHEASEDCISRGGTLSTPQTGSENDALYEYLRQSVGNEAEIWLGLNGSRRSGVWVDMTGARIAYKNWETEITAQPDGGFGVFGENCAVLSGAANGKWFDKRCRDQLPYICQFGIV		1.35e+08 M⁻¹	7.42 nM	0.000805 s⁻¹	109000 M⁻¹ s⁻¹	1.4 nM
056-53.H7H ATRIMER complex (designed binder, Homotrimer of this chain (ATRIMER complex)., not shown: A possible extra N-terminal Ser from the ompA junction is left out) EPPTQKPKKIVNAKKDVVNTKMFEELKSRLDTLAQEVALLKEQQALQTVCLKGTKVHMKCFLAFTQTKTFHEASEDCISRGGTLSTPQTGSENDALYEYLRQSVGNEAEIWLGLNGSSVSDVWVDMTGARIAYKNWETEITAQPDGGFGYFGENCAVLSGAANGKWFDKRCRDQLPYICQFGIV		6.65e+08 M⁻¹	1.5 nM	0.000385 s⁻¹	256000 M⁻¹ s⁻¹	0.53 nM
001-87.A9E ATRIMER complex (designed binder, Homotrimer of this chain (ATRIMER complex)., not shown: A possible extra N-terminal Ser from the ompA junction is left out) EPPTQKPKKIVNAKKDVVNTKMFEELKSRLDTLAQEVALLKEQQALQTVCLKGTKVHMKCFLAFTQTKTFHEASEDCISRGGTLSTPQTGSENDALYEYLRQSVGNEAEIWLGLNGSALTNTWVDMTGARIAYKNWETEITAQPDGGLGYWGENCAVLSGAANGKWFDKRCRDQLPYICQFGIV		5.21e+08 M⁻¹	1.92 nM	0.00033 s⁻¹	172000 M⁻¹ s⁻¹	2.6 nM
056-45.F7F ATRIMER complex (designed binder, Homotrimer of this chain (ATRIMER complex)., not shown: A possible extra N-terminal Ser from the ompA junction is left out) EPPTQKPKKIVNAKKDVVNTKMFEELKSRLDTLAQEVALLKEQQALQTVCLKGTKVHMKCFLAFTQTKTFHEASEDCISRGGTLSTPQTGSENDALYEYLRQSVGNEAEIWLGLNGSATTDTWVDMTGARIAYKNWETEITAQPDGGFGYFGENCAVLSGAANGKWFDKRCRDQLPYICQFGIV		7.92e+08 M⁻¹	1.26 nM	0.000376 s⁻¹	298000 M⁻¹ s⁻¹	1.45 nM
056-53.H7B ATRIMER complex (designed binder, non-covalent homotrimer of the one chain given, not shown: Also the single Ser the vector leaves after the ompA signal) EPPTQKPKKIVNAKKDVVNTKMFEELKSRLDTLAQEVALLKEQQALQTVCLKGTKVHMKCFLAFTQTKTFHEASEDCISRGGTLSTPQTGSENDALYEYLRQSVGNEAEIWLGLNAGRMGLVWVDMTGARIAYKNWETEITAQPDGGWGVFGENCAVLSGAANGKWFDKRCRDQLPYICQFGIV		1.8e+09 M⁻¹	0.557 nM	0.00024 s⁻¹	431000 M⁻¹ s⁻¹	0.9 nM
056-53.H1G ATRIMER complex (designed binder, Homotrimer of this chain (ATRIMER complex)., not shown: A possible extra N-terminal Ser from the ompA junction is left out) EPPTQKPKKIVNAKKDVVNTKMFEELKSRLDTLAQEVALLKEQQALQTVCLKGTKVHMKCFLAFTQTKTFHEASEDCISRGGTLSTPQTGSENDALYEYLRQSVGNEAEIWLGLNSGHWRAVWVDMTGARIAYKNWETEITAQPDGGFGVFGENCAVLSGAANGKWFDKRCRDQLPYICQFGIV		1.95e+08 M⁻¹	5.13 nM	0.000489 s⁻¹	95200 M⁻¹ s⁻¹	3.75 nM

Further lines, results first:

Ratio IC50 to 056-53.H4E IC50 [1]	Ka [2]	Kd [2]	koff [2]	kon [2]	IC50 [3]	Binder
1.2	1.31e+09 M⁻¹	0.764 nM	0.00031 s⁻¹	405000 M⁻¹ s⁻¹		105-20-1B3 ATRIMER complex (designed binder) EPPTQKPKKIVNAKKDVVNTKMFEELKSRLDTLAQEVALLKEQQALQTVCLKGTKVHMKCFLAFTQTKTFHEASEDCISRGGTLSTPQTGSENDALYEYLRQSVGNEAEIWLGLNGSALTNTWVDMTGARIAYKNWETEITAQPDGGFGYFGENCAVLSGAANGKWFDKRCRDQLPYICQFGIV
1.8	7.58e+08 M⁻¹	1.32 nM	0.000397 s⁻¹	302000 M⁻¹ s⁻¹		105-08-2G10 ATRIMER complex (designed binder) EPPTQKPKKIVNAKKDVVNTKMFEELKSRLDTLAQEVALLKEQQALQTVCLKGTKVHMKCFLAFTQTKTFHEASEDCISRGGTLSTPQTGSENDALYEYLRQSVGNEAEIWLGLNGSPLTDTWVDMTGARIAYKNWETEITAQPDGGFGYFGENCAVLSGAANGKWFDKRCRDQLPYICQFGIV
2.5	6.99e+08 M⁻¹	1.43 nM	0.000358 s⁻¹	251000 M⁻¹ s⁻¹		105-08-2G7 ATRIMER complex (designed binder) EPPTQKPKKIVNAKKDVVNTKMFEELKSRLDTLAQEVALLKEQQALQTVCLKGTKVHMKCFLAFTQTKTFHEASEDCISRGGTLSTPQTGSENDALYEYLRQSVGNEAEIWLGLNGSPKTGTWVDMTGARIAYKNWETEITAQPDGGFGYFGENCAVLSGAANGKWFDKRCRDQLPYICQFGIV
2.1	1.34e+09 M⁻¹	0.744 nM	0.000372 s⁻¹	500000 M⁻¹ s⁻¹		105-20-1H7 ATRIMER complex (designed binder) EPPTQKPKKIVNAKKDVVNTKMFEELKSRLDTLAQEVALLKEQQALQTVCLKGTKVHMKCFLAFTQTKTFHEASEDCISRGGTLSTPQTGSENDALYEYLRQSVGNEAEIWLGLNGSAGTNTWVDMTGARIAYKNWETEITAQPDGGFGYFGENCAVLSGAANGKWFDKRCRDQLPYICQFGIV
1.2	1.32e+09 M⁻¹	0.759 nM	0.000312 s⁻¹	412000 M⁻¹ s⁻¹		105-20-2A3 ATRIMER complex (designed binder, Homotrimer of three identical chains (ATRIMER complex); one chain is given., not shown: C-terminal tag: His/Myc (pANA4) or HA-StrepII (pANA10)) EPPTQKPKKIVNAKKDVVNTKMFEELKSRLDTLAQEVALLKEQQALQTVCLKGTKVHMKCFLAFTQTKTFHEASEDCISRGGTLSTPQTGSENDALYEYLRQSVGNEAEIWLGLNGSPITNTWVDMTGARIAYKNWETEITAQPDGGFGYFGENCAVLSGAANGKWFDKRCRDQLPYICQFGIV
1	1.52e+09 M⁻¹	0.658 nM	0.000262 s⁻¹	398000 M⁻¹ s⁻¹		105-20-2G12 ATRIMER complex (designed binder) EPPTQKPKKIVNAKKDVVNTKMFEELKSRLDTLAQEVALLKEQQALQTVCLKGTKVHMKCFLAFTQTKTFHEASEDCISRGGTLSTPQTGSENDALYEYLRQSVGNEAEIWLGLNGSPRTNTWVDMTGARIAYKNWETEITAQPDGGFGYFGENCAVLSGAANGKWFDKRCRDQLPYICQFGIV
1.8	1.17e+09 M⁻¹	0.857 nM	0.00032 s⁻¹	374000 M⁻¹ s⁻¹		105-20-1H1 ATRIMER complex (designed binder) EPPTQKPKKIVNAKKDVVNTKMFEELKSRLDTLAQEVALLKEQQALQTVCLKGTKVHMKCFLAFTQTKTFHEASEDCISRGGTLSTPQTGSENDALYEYLRQSVGNEAEIWLGLNGSPLTNTWVDMTGARIAYKNWETEITAQPDGGWGYFGENCAVLSGAANGKWFDKRCRDQLPYICQFGIV
2.8	5.41e+08 M⁻¹	1.85 nM	0.000471 s⁻¹	254000 M⁻¹ s⁻¹		105-20-2F12 ATRIMER complex (designed binder, ATRIMER complex: homotrimer of three copies of this chain, joined by the tetranectin coiled coil, not shown: C-terminal tag: Myc/His (pANA4) or HA-StrepII (pANA10)) EPPTQKPKKIVNAKKDVVNTKMFEELKSRLDTLAQEVALLKEQQALQTVCLKGTKVHMKCFLAFTQTKTFHEASEDCISRGGTLSTPQTGSENDALYEYLRQSVGNEAEIWLGLNGSKLTDTWVDMTGARIAYKNWETEITAQPDGGFGYFGENCAVLSGAANGKWFDKRCRDQLPYICQFGIV
